The source of these data is patent US20210347908A1 (ELPISCIENCE SUZHOU BIOPHARMA, published 2021).

Assay [1] deals with T1, 6×His tagged human SIRPα v2 ECD recombinant protein (human). Put plainly: SPR (Biacore), antibody captured. The procedure:
(§1) Anti-SIRPα chimeric antibodies were characterized for binding affinity against human SIRPα v1, human SIRPα v2 and C57BL/6 mouse SIRPα using Biacore (GE). Briefly the antibodies to be tested were captured to CM5 chip (GE) using Human Antibody Capture Kit (GE). The antigens of 6×His tagged human SIRPα v1, human SIRPα v2 and C57BL/6 mouse SIRPα ECD recombinant proteins were serially diluted for multiple doses and injected at 30 μl/min for 180 s. Buffer flow was maintained for dissociation of 400 s. 3 M MgCl₂ was used for chip regeneration. The association and dissociation curves were fit with 1:1 binding model, and the Ka/Kd/KD values for each antibody were calculated.
Background: SPR reads the build-up and loss of mass on a sensor chip optically.

Assay [2] addresses T2, 6×His tagged human SIRPα v1 ECD recombinant protein (human, UniProt P78324 31-373).
T2 construct: extracellular domain; bought; also called hSIRPα V1 (SPR antigen)
Put plainly: SPR (Biacore), antibody captured. The procedure: as §1

Assay [3] has as its target T3, 6×His tagged C57BL/6 mouse SIRPα ECD recombinant protein (mouse (C57BL/6), UniProt P97797 32-373).
T3 construct: extracellular domain; bought; also called mSIRPα (C57BL/6); mouse SIRPα (C57BL/6) ECD
T3 sequence: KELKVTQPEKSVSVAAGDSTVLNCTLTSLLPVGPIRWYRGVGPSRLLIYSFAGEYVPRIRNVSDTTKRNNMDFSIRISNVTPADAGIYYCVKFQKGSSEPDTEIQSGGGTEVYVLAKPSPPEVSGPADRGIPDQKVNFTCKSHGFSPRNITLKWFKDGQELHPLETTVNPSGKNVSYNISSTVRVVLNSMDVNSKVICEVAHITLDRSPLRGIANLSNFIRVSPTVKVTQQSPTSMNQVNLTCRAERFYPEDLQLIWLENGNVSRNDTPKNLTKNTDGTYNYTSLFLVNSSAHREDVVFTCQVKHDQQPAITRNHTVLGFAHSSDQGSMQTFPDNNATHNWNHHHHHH
The assay is described as follows: SPR (Biacore), antibody captured. As for the experimental part: as §1

Assay [4] deals with T1, 6×His tagged human SIRPα v2 ECD …. Put plainly: SPR (Biacore). The procedure: as §1
In assay [5] the target is T2, 6×His tagged human SIRPα v1 ECD …. The assay is described as follows: SPR (Biacore). The procedure:
as §1

Assay [6] addresses T4, biotin labeled soluble human SIRPα v1 ECD recombinant protein (human, UniProt P78324 31-373, biotin labeled).
T4 construct: extracellular domain
Put plainly: competitive ELISA; competitor 032. As for the experimental part: (§2) Competitive ELISA assay was used for epitope binning of 9 functional antibodies. Briefly excessive competitor antibody and biotin labeled soluble human SIRPα v1 ECD recombinant protein were co-incubated with ELISA microplate coated antibody. After washing, HRP-SA was added and incubated at 37° C. for 1 hour. Then, […] of TMB solution (Biotechnology) was added. After incubation for 15 minutes at room temperature, the reaction was stopped by the addition of […] of 1N HCl. OD 450 nm was read. Competition ratio was calculated. The antibodies that can compete each other for binding to SIRPα have the similar binding epitope.

The target in assay [7] is T4, biotin labeled soluble human SIRPα v1 …. The assay is described as follows: competitive ELISA; competitor 055. As for the experimental part: as §2
(In an ELISA, binding on a coated surface is turned into a signal by an enzyme label.)

B1: chimeric antibody 022c (antibody, V domains shown)
VH: QIQLVQSGPELKKPGETVKISCKASGYTFTDYAMHWVKQAPGKGLKWMGWKNTETGESTYAEDFKGRFAFFLETSASTAYLQINNVKNEDTATYFCARGGYGSNYVMDYWGQGTSVIVSS
VL: DIQMTQSSSSFSVSLGDRVTITCKASEDIYNRLAWYQQKPGNAPRLLISGATSLETGVPSRFSGSGSGKDYTLSITSLQTEDVATYYCQQYWNSPRTFGGGTKLEIK
The term Kd denotes the constant that tells how readily two partners part at equilibrium. The term koff denotes the first-order rate constant of dissociation. What is called kon is the rate constant with which the complex forms. With B1, the dissociation constant (Kd) in assay [1] was determined as 25.6 nM; in assay [2], 5.9 nM; in assay [4] it was 25.6 nM; in assay [5], 5.9 nM. For the same molecule, the koff in assay [1] stood at 0.00144 s⁻¹; in assay [2] it was 0.00074 s⁻¹. In addition, the on-rate constant (kon) in assay [1] came to 56100 M⁻¹ s⁻¹; in assay [2] it was 125000 M⁻¹ s⁻¹. Also, the binding result in assay [3] is recorded as “no binding”.

B2: chimeric antibody 055c (antibody, V domains shown)
VH: EVKLVESEGGLVQPGDSMKLSCTASGFTFSDYFMTWIRQVPEKGLEWIANVNYDGRSTYYLDSLKSRFIISRDNANNILYLQMSSLKSEDTATYYCAREGSQTPLYAVDYWGQGTSVTVSS
VL: DIVMTQSQKFMSTTVGDRVNITCKASQNVGTAVAWYQQKPGQSPKLLIYLASNRYTGVPDRFTGSGSGTDFTLTVSDMRSEDLADYFCQQYSIYPFTFGSGTKLEIK
With B2, the Kd in assay [1] was 28.5 nM; in assay [2], 16.6 nM; in assay [4], 28.5 nM; in assay [5] it was 16.6 nM. Also, the koff in assay [1] came to 0.00138 s⁻¹; in assay [2] it was 0.00141 s⁻¹. The kon is 48300 M⁻¹ s⁻¹ in assay [1] and 85100 M⁻¹ s⁻¹ in assay [2]. The binding result in assay [3] was “no binding”.

B3: chimeric antibody 050c (antibody, V domains shown)
VH: QIQLVQSGPELKKPGETVKISCKASGYTFTHYSMHWVKQAPGKGLKWMGWINTETAEPTYVDDFKGRFAFSLEASASTAFFQINNLKNEDTATYFCARGGLRQGDYWGQGTTLTVSS
VL: QIVLTQSPPIMSASPGEKVTLTCSATSSVSASYLYWFQQKPGSSPKLWIYSTSNLASGVPARFSGSGSGTSYSLTISNMEPADAASYFCHQWSSYPYTFGGGTKLEIK
In the case of B3, the Kd is 4.72 nM in assay [1], 3.07 nM in assay [2], 4.72 nM in assay [4] and 3.07 nM in assay [5]. Further, the koff in assay [1] amounted to 0.000529 s⁻¹; in assay [2], 0.000774 s⁻¹. Moreover, the kon in assay [1] worked out at 112000 M⁻¹ s⁻¹; in assay [2] it was 252000 M⁻¹ s⁻¹. The binding result in assay [3] was “no binding”.

B4: reference antibody KWAR23 (antibody, V domains shown)
VH: EVQLQQSGAELVKPGASVKLSCTASGFNIKDYYIHWVQQRTEQGLEWIGRIDPEDGETKYAPKFQDKATITADTSSNTAYLHLSSLTSEDTAVYYCARWGAYWGQGTLVTVSS
VL: QIVLTQSPAIMSASPGEKVTLTCSASSSVSSSYLYWYQQKPGSSPKLWIYSTSNLASGVPARFSGSGSGTSYSLTISSMEAEDAASYFCHQWSSYPRTFGAGTKLELK
B4: the entries for the “% Competition” value in assay [6] and in assay [7] were 82% and 1%, respectively. Besides, the results for the Kd in assay [4] and in assay [5] were 14.7 nM and 2.66 nM, respectively.

B5: chimeric antibody 001c (antibody, V domains shown)
VH: EVKLEESGGGLVQPGGSMKLSCVASGFTFRNYWMNWVRQSPERGLEWIAEISLKSNTYATHYAESVKGRFAISRDGSKSSFYLQMNDLRAEDTGIYYCTTFTKVVADWHLDVWGAGTTVTVSS
VL: DVLMTQTPLSLPVSLGDQASISCRSSQNIVHSNGNTYLEWYLQKPGQSPKLLIYKVSNRFSGVPDRFSGSGSGTDFTLRISRVEAEDLGVYYCFQGSHVPFTFGSGTKLEIK
In the case of B5, the Kd was 20.6 nM in assay [1], 11.4 nM in assay [2], 20.6 nM in assay [4] and 11.4 nM in assay [5]. The koff stood at 0.000816 s⁻¹ in assay [1] and 0.000855 s⁻¹ in assay [2]. For the same molecule, the kon in assay [1] is 39700 M⁻¹ s⁻¹; in assay [2], 74900 M⁻¹ s⁻¹. Besides, the binding result in assay [3] is reported as “no binding”.

B6: chimeric antibody 032c (antibody, V domains shown)
VH: EVRLEESGGGLVQPGGSMKLSCVVSGFTFRNYWMNWVRQSPERGLEWIAEITLKSNTYATHYAESVKGRFAISRDDSKSSFYLQMNDLRPEDTGIYYCTTFTKVVADWHLDVWGAGTTVTVSS
VL: DVLMTQTPLSLPVNLGDQASISCRSSQNIVHSNGNTYLEWYLQKPGQSPKLLIYKVSNRFSGVPDRFSGSGSGTDFTLRISRVEAEDLGVYYCFQGSHVPFTFGSGTKLEIK
Turning to B6, the Kd amounted to 14.7 nM in assay [1], 8.92 nM in assay [2], 14.7 nM in assay [4] and 8.92 nM in assay [5]. For the same molecule, the koff in assay [1] was determined as 0.000774 s⁻¹; in assay [2], 0.000834 s⁻¹. In addition, the values for the kon in assay [1] and in assay [2] were 52600 M⁻¹ s⁻¹ and 93500 M⁻¹ s⁻¹, respectively.

B7: chimeric antibody 002c (antibody, V domains shown)
VH: EVKLEESGGGLVQPGGSMILSCVASGFTFRNYWMNWVRQSPERGLEWIAEITLKSNTYATHYAESVKGRFAISRDDSKSSFYLQMNDLRPEDTGIYYCTTFTKVVADWHLDVWGAGTTVTVSS
VL: DVLMTQTPLSLPVSLGDQASISCRSSQNIVHSNGNTYLEWYLQKPGQSPKLLIYKISNRFSGVPDRFSGSGSGTDFTLRISRVEAEDLGVYYCFQGSHVPFTFGSGTKLEIQ
For B7, the Kd in assay [1] was determined as 28.3 nM; in assay [2], 16.1 nM; in assay [4] it was 28.3 nM; in assay [5], 16.1 nM. Further, the values for the koff in assay [1] and in assay [2] were 0.00146 s⁻¹ and 0.00148 s⁻¹, respectively. Also, the kon in assay [1] was found to be 51600 M⁻¹ s⁻¹; in assay [2], 92000 M⁻¹ s⁻¹. For the same molecule, the binding result in assay [3] is recorded as “no binding”.

B8: chimeric antibody 074c (antibody, V domains shown)
VH: QVQLQQPRAELVKPGASVMLSCKASGYTFSSYWIHWVRQGPGQGLEWIGLIHPNSGNTDCSETFKNKATLTVDTSSSTAYMQLSSLASEDSAVYYCARDGASYDWFVHWGQGTLVTVSA
VL: not shown
Consider B8, for which the Kd is 25.2 nM in assay [1], 4.4 nM in assay [2], 25.2 nM in assay [4] and 4.4 nM in assay [5]. Moreover, the figures for the koff in assay [1] and in assay [2] were 0.000515 s⁻¹ and 0.000229 s⁻¹, respectively. Moreover, the kon in assay [1] was 20400 M⁻¹ s⁻¹; in assay [2] it was 52100 M⁻¹ s⁻¹. Moreover, the binding result in assay [3] is recorded as “no binding”.
